Key:
Assay in all cases: holdup assay
Set-up in all cases: key: below the threshold = too weak to quantify, mostly under pKd 3.1 to 4
CASK, O14936 = target: CASK, O14936
GRID2IP_1, A4D2P6 = target: GRID2IP_1, A4D2P6
RADIL, Q96JH8 = target: T1, RADIL, Q96JH8
T1 sequence (Q96JH8 971-1071, limits assumed, looked up): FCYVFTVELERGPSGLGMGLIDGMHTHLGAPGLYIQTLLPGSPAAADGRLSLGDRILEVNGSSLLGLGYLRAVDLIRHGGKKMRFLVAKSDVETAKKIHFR

MPDZ_5, O75970 = target: T2, MPDZ_5, O75970
T2 sequence (O75970 695-796, limits assumed, looked up): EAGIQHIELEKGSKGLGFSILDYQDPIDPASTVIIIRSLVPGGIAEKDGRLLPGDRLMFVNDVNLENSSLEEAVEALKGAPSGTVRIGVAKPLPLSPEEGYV

Inadl_1, Q8NI35 = target: Inadl_1, Q8NI35
DFNB31_2, Q9P202 = target: T3, DFNB31_2, Q9P202
T3 sequence (Q9P202 274-371, limits assumed, looked up): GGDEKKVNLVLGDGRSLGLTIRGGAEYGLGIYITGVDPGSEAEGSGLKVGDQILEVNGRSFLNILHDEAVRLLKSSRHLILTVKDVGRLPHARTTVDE

SCRIB_1, Q14160 = target: SCRIB_1, Q14160
PARD3B_1, Q8TEW8 = target: T4, PARD3B_1, Q8TEW8
T4 sequence (Q8TEW8 196-299, limits assumed, looked up): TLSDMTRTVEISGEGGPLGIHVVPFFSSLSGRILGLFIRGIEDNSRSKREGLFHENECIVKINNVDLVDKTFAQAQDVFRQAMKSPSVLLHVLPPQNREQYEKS

DFNB31_1, Q9P202 = target: T5, DFNB31_1, Q9P202
T5 sequence (Q9P202 135-233, limits assumed, looked up): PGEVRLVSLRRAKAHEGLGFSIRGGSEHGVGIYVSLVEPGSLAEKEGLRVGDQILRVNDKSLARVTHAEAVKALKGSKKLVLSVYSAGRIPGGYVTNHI

GRIP2_3, Q9C0E4 = target: GRIP2_3, Q9C0E4
MAGI2_3, Q86UL8 = target: MAGI2_3, Q86UL8
MAGI1_1, Q96QZ7 = target: MAGI1_1, Q96QZ7
FRMPD2_3, Q68DX3 = target: FRMPD2_3, Q68DX3
IL16_3, Q14005 = target: IL16_3, Q14005
MPDZ_10, O75970 = target: T6, MPDZ_10, O75970
T6 sequence (O75970 1624-1722, limits assumed, looked up): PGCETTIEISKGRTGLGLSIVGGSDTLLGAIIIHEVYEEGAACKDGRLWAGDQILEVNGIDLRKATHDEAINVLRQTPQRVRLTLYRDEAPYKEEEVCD

DLG3_1, Q92796 = target: T7, DLG3_1, Q92796
T7 sequence (Q92796 125-227, limits assumed, looked up): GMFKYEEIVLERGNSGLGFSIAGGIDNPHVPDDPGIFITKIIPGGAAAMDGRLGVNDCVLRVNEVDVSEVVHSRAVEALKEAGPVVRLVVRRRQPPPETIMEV

SCRIB_2, Q14160 = target: SCRIB_2, Q14160
NHERF3_1, Q5T2W1 = target: T8, NHERF3_1, Q5T2W1
T8 sequence (Q5T2W1 4-100, limits assumed, looked up): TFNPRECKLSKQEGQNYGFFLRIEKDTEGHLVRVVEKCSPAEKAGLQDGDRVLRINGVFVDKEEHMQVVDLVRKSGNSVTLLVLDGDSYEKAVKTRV

FRMPD1, Q5SYB0 = target: T9, FRMPD1, Q5SYB0
T9 sequence (Q5SYB0 52-145, limits assumed, looked up): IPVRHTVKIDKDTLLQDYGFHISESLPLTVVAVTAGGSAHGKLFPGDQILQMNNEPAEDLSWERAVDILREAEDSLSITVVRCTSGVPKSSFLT

TJP2_1, Q9UDY2 = target: TJP2_1, Q9UDY2
MAGI2_2, Q86UL8 = target: MAGI2_2, Q86UL8
LIN7A, O14910 = target: T10, LIN7A, O14910
T10 sequence (O14910 103-200, limits assumed, looked up): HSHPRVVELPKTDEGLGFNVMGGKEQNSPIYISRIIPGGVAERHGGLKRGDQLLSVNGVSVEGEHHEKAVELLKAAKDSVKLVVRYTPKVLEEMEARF

PDLIM1, O00151 = target: PDLIM1, O00151
Inadl_5, Q8NI35 = target: Inadl_5, Q8NI35
DLG2_3, Q15700 = target: DLG2_3, Q15700
GIPC2, Q8TF65 = conditions: plain residues with an end cap or a label only (N-terminal biotin on a linker: ttds)
Inadl_10, Q8NI35 = conditions: plain residues with an end cap or a label only (N-terminal biotin on a linker: ttds)
GRASP, Q7Z6J2 = conditions: plain residues with an end cap or a label only (N-terminal biotin on a linker: ttds)
[1] = plain residues with an end cap or a label only (N-terminal biotin on a linker: ahx)
[2] = plain residues with an end cap or a label only (N-terminal biotin on a linker: ttds)

Chain of FRMPD2_3, Q68DX3 (Q68DX3 1073-1166): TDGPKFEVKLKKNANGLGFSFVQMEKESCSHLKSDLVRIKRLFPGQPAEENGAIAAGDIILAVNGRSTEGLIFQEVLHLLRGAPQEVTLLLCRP
Chain of TJP2_1, Q9UDY2 (Q9UDY2 24-128): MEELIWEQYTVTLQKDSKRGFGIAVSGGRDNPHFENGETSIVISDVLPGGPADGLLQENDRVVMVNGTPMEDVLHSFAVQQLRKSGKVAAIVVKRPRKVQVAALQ
Chain of SCRIB_1, Q14160 (Q14160 718-814): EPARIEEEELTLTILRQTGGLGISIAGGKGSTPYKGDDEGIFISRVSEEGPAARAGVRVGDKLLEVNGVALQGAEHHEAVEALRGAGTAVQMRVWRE
Chain of MAGI1_1, Q96QZ7 (Q96QZ7 1-106): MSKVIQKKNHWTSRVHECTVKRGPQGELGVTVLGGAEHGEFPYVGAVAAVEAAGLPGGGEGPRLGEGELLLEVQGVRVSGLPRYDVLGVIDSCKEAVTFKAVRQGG
Chain of GRID2IP_1, A4D2P6 (A4D2P6 1-87): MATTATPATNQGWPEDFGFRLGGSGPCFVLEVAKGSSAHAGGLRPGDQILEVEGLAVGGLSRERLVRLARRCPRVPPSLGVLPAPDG
Chain of MAGI2_2, Q86UL8 (Q86UL8 410-522): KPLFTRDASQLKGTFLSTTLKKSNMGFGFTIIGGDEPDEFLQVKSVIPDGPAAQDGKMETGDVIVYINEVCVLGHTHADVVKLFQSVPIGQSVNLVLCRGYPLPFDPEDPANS
Chain of PDLIM1, O00151 (O00151 1-87): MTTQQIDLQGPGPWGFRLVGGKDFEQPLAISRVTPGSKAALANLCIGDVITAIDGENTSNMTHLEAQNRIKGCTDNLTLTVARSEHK
Chain of Inadl_5, Q8NI35 (Q8NI35 673-780): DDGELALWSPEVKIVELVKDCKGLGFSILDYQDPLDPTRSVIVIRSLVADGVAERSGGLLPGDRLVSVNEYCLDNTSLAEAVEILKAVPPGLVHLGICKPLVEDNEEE
Chain of IL16_3, Q14005 (Q14005 1107-1207): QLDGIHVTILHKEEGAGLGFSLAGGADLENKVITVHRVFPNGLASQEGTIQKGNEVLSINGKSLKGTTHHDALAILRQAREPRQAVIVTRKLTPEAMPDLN
Chain of Inadl_1, Q8NI35 (Q8NI35 113-229): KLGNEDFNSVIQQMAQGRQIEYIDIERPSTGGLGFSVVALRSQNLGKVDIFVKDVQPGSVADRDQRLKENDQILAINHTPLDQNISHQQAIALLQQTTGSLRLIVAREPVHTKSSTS
Chain of SCRIB_2, Q14160 (Q14160 857-960): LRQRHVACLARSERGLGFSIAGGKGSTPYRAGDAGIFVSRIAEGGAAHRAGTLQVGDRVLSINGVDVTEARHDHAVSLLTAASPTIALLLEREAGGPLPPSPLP
Chain of CASK, O14936 (O14936 487-570): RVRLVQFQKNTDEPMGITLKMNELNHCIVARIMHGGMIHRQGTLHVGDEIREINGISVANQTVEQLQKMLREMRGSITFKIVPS
Chain of GRIP2_3, Q9C0E4 (Q9C0E4 238-339): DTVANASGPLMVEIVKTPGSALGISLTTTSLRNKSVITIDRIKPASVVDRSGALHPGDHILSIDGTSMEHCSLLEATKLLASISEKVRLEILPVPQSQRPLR
Chain of MAGI2_3, Q86UL8 (Q86UL8 600-682): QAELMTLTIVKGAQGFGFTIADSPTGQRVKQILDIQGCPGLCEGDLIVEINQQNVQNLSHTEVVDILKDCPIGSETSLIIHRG
Chain of GIPC2, Q8TF65 (Q8TF65 112-203): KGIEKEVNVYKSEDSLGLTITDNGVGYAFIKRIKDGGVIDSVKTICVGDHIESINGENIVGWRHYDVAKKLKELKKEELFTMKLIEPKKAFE
Chain of Inadl_10, Q8NI35 (Q8NI35 1673-1763): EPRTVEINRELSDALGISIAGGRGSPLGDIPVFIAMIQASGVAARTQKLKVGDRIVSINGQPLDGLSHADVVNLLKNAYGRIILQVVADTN
Chain of GRASP, Q7Z6J2 (Q7Z6J2 96-193): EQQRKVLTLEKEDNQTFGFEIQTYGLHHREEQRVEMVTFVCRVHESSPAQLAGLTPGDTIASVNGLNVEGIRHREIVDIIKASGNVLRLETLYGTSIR

## LCKSHAFSHV [PDLIM7, Q9NR12;Q9NR12-1]
CASK, O14936; [1]
  pKd: below the threshold
GRID2IP_1, A4D2P6; [1]
  pKd: below the threshold
RADIL, Q96JH8; [1]
  pKd: 3.99
MPDZ_5, O75970; [1]
  pKd: below the threshold
Inadl_1, Q8NI35; [1]
  pKd: below the threshold
DFNB31_2, Q9P202; [1]
  pKd: below the threshold
SCRIB_1, Q14160; [1]
  pKd: below the threshold
PARD3B_1, Q8TEW8; [1]
  pKd: below the threshold
DFNB31_1, Q9P202; [1]
  pKd: below the threshold
GRIP2_3, Q9C0E4; [1]
  pKd: below the threshold
MAGI2_3, Q86UL8; [1]
  pKd: below the threshold
MAGI1_1, Q96QZ7; [1]
  pKd: below the threshold
FRMPD2_3, Q68DX3; [1]
  pKd: below the threshold
IL16_3, Q14005; [1]
  pKd: below the threshold
MPDZ_10, O75970; [1]
  pKd: 4.07
DLG3_1, Q92796; [1]
  pKd: below the threshold
SCRIB_2, Q14160; [1]
  pKd: below the threshold
NHERF3_1, Q5T2W1; [1]
  pKd: below the threshold
FRMPD1, Q5SYB0; [1]
  pKd: below the threshold
TJP2_1, Q9UDY2; [1]
  pKd: 4.09
MAGI2_2, Q86UL8; [1]
  pKd: 4.11
LIN7A, O14910; [1]
  pKd: below the threshold
PDLIM1, O00151; [1]
  pKd: below the threshold
Inadl_5, Q8NI35; [1]
  pKd: below the threshold
DLG2_3, Q15700; [1]
  pKd: below the threshold

## CLDTSRETDL [KCNA5, P22460]
CASK, O14936; [2]
  pKd: below the threshold
GRID2IP_1, A4D2P6; [2]
  pKd: below the threshold
GIPC2, Q8TF65
  pKd: below the threshold
RADIL, Q96JH8; [2]
  pKd: below the threshold
MPDZ_5, O75970; [2]
  pKd: below the threshold
Inadl_1, Q8NI35; [2]
  pKd: below the threshold
Inadl_10, Q8NI35
  pKd: below the threshold
DFNB31_2, Q9P202; [2]
  pKd: below the threshold
SCRIB_1, Q14160; [2]
  pKd: 4.76
PARD3B_1, Q8TEW8; [2]
  pKd: below the threshold
DFNB31_1, Q9P202; [2]
  pKd: 3.84
GRIP2_3, Q9C0E4; [2]
  pKd: below the threshold
MAGI2_3, Q86UL8; [2]
  pKd: below the threshold
MAGI1_1, Q96QZ7; [2]
  pKd: below the threshold
FRMPD2_3, Q68DX3; [2]
  pKd: below the threshold
IL16_3, Q14005; [2]
  pKd: below the threshold
MPDZ_10, O75970; [2]
  pKd: below the threshold
DLG3_1, Q92796; [2]
  pKd: 3.49
SCRIB_2, Q14160; [2]
  pKd: 4.35
NHERF3_1, Q5T2W1; [2]
  pKd: 4.43
FRMPD1, Q5SYB0; [2]
  pKd: below the threshold
GRASP, Q7Z6J2
  pKd: below the threshold
TJP2_1, Q9UDY2; [2]
  pKd: below the threshold
MAGI2_2, Q86UL8; [2]
  pKd: below the threshold
LIN7A, O14910; [2]
  pKd: below the threshold
PDLIM1, O00151; [2]
  pKd: 4.29
Inadl_5, Q8NI35; [2]
  pKd: below the threshold
DLG2_3, Q15700; [2]
  pKd: below the threshold

From publication PMC9482650, “Quantitative fragmentomics allow affinity mapping of interactomes” (Nature Communications, 2022)
